Source: the domain aggregation screens of Martell et al. (2025)

Assay: soluble fraction after stress (log2 fold change); higher = more stays soluble; pooled small domains, quantitative proteomics
Conditions: stress: 50 degC
How it was run: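 Custom libraries of small protein domains were pooled and measured in a high-throughput format, with quantitative proteomics as the read-out. Each library was stressed at 50°C. The value is the log2 fold change in the amount of each protein that stays soluble after stress, used as a measure of aggregation propensity; higher values mean more of the protein stays soluble.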

Sequence	soluble fraction (log2)
HMAVNVNGIHLSSQQHEALVSIWRTGRMPEPHAGQKPWLWIQALRRRGLVSGNALRLTDKGRHIVQLLQ	0.142
HMGSFDDAPDQLRQSILQLLAEGPLPPSAITERLNISREDATEALQQLLDEQRIFAVNGMLQLQPG	-0.0107
HMPIDIEPVLQWIRDNSIDGIGPARSMYHSAAAAAGLPSYSSLQLRKWTWPLLLDAAGVQRR	-0.433
HMQLTQEAIENLFKITTAKKFREELEKLVVTDSEKKAFAYFTVYHPKLKELPFAILKSVENYTGISI	-0.871
HMKAGAVFNEGDVLYPKIGGLKLMAAAGEGGKVVATLAKTDEMIYMGEEQSGFVKVESGSGSGWVKKILVA	0.366
HMTVDIADALRVLGLSDAPDWSDVRAAHRRAIVRTHPDAGGSAGDAARVNQAFDLLRKISGNGERPIPG	0.154
HMGLPPIATGVNDNMSFSQAFAAARAEVGAGGAFEWHGRVYGTYYKNEWDGMSAQERHDFEIAAIRGS	-0.166
HMRNQIRAVITPVPNQERYTVEMTIDDDAGNLLTLQMAAPDRQQAAEFAQRFQKHPEALYHAVLSVLL	0.0702
HMLIRKGVVSFFNDAKGYGFIKDLVTQESAFVHVNSLSETIKEHDKVTFEVEMGHKGANAVNVKLVK	-1.03
HMNLKDINLNVRHYKIIDFVREHGYASIETLTRQFGVSAQTVRRDIIYLDNQAVLKRHHGGVGTLPG	-1.99
HMNMPDVTVEWVKEQQAKFGLTDSDLAKSVNIDNANLARIFNQRGLTKIHKALFYYFFRAYGLQ	-2.4
HMPPQPATQNTKAQVMQLAREKELMAGEGRGANVEALEKFANEHGISLRGMTEEQAEQLVKLLMEYTP	-0.258
HMQPTVEGLMKALETMTFNERTALALHYGLTGRQPMTFMAIGRYLGISDGRAEALVNSAIRKLR	-1.43
HMGVTVDEVHRNFESGMNVVHKKFGAGVVDSFDEGKIRINFDGVIKVFIADVLINSGMLESVSYTH	-0.212
HMYDFGVILQKLRKEKGFTQEQLARLIHKESSIISRYEKGLQNPTFETVKEFAAIFNVSMDYLAG	-1.25
HMTWDSFIGYTVTDVQKGYLGEITDVDETTINVLLRVDHKGEELLIPAVEELITEADHEARSLTVSLPEGL	-0.0571
HMNITHEINVKSKSKIDFLENNKNLAQFFLTKNPNQFNYNLVFSDKSELNIIKEKIESHKDIEDIDIRYG	0.0125
HMRQQQISAAIKTSVNGTVDYYVRRLPERDPRGDFLEVWDDLQKVIQAAHGIQVSHDELYEYFRRLK	-0.337
HMIKIEDILNVESVELSDSEYKKFLNGILINVKNLENGWAKVYSGNEFKGFGIVDKNLLKRKIVID	-0.426
HMNSPSKVIDISQLRKGMFVQLDLGWMSHPFAVGSFKVSTDEQIQTLRGLGLSEVRYIPEKSDPA	-0.514
HMPFGIYGGKVSSLDDLKDKAAVLVPNDVSNEARALLLLEAQGLIKLKEGVGLEATRNDIVEN	≥ 0.62
HMQKADFDYGDYVDLGLAMGRQSRQLREAVGIKLGIGYANSKRFYQRLQTFGISLAELKQAVEEAENDQQN	-0.735
HMKNHIEERRKARGMTQQQLASELGVSRQTIISLENGKYNPSILLAHSIARLFGERIEDIFILR	-1.6
HMHTDDDGITEAFPHLRLLSLGEDILDLLEKSRFIRKLNNELVYYVVDFREQNSIDGRRYHPSIYHNL	-0.258
HMQPFTELTPREREILGHLAEGQSNKVIARHLDISDGTVKLHVKAILRKLGVHSRVEAAVMAVEHGIR	-1.31

Sequence	soluble fraction (log2)
HMIYQNVINLLKNRLNSSIYNIGDLLPSEKELAEHYDVSRNTLRKALKTLEEEGMIERRHGSGTYLRNK	-0.969
HMPPPVDLDKKGYKLRGIVLEDGRSAAFVFVPAEKRVVVLRENASGPVRLLETGMRRIRLQTPEGAGYLEL	-0.724
HMRRRTLRQGATGSDVHAVQRLLNVDGAGLRTDGIFGPATERAVIAYQRKHGLAVDGVVGRETWTALLG	-0.61
HMEVENAQLLARLTPQEHRVFERVVAGLSNREIGSEMDISIKTVEVHRARVMRKLEANSVAELVRFHIHN	-2.25
HMARRKRDIDSDINVKVFEHWLDNLDSASRESFSAFAEETFSPIQVYLYAKFLGYESSIIAVDHWVAVAYP	0.104
HMNRYPIQTEVHAFNDDIIKEAINFEMSRGGQIFFVNNRIPQLYELENTIHRLVPDARVVIGHGQMP	-0.188
HMTPNATWQDDAQSLLRDLIQHQPVLIQISAAKRLRDQAEQISRITGGDTVTRDHVEAAGHALGMGVT	0.0517
HMIKISDYLSEEDLNFIKEMEKIYPYFDFDSEGNLILTKSIDELKDKYGFDEAFVSRLDTVLNSR	0.0178
HMNREIVVYITGAVDNPGLYRLPLDSRLDDVLKLAVLSTNADREVLNPAQKLKDGQKIVVPYIVE	-0.111
HMKEIKAPNKINAHLIEEWRSQHPTELFPEEKVDLIYYKGEEYYFVIEEKNELGEIEEWYFAYDGGIDYV	0.106
HMPNGEAYQRFTYENDILEGRFEEWDSLGTDIVKGDYTAGVRHKKWLYYDSEGRRDKFVFLDMDSI	0.0763
HMGNLEENFRLKAGTEDGAWEFIRYHLGKLPVVNESNGTAIVNAERQAFLLFDRMVAFHIQRGVMVPLSAP	0.0891
HMLPISGDDRDALDMAALILKQYDSLPILKEFANVVTKLQTVLDGVVSNSIEARRQMIQFEE	-0.0336
HMKFHENLIALRRREGWSQEELGNRIGVTRQTVSKWELGLTTPELEKLVQLADVFGMTTDQLVGR	-0.146
HMDVIDDAQAMEIALEDAGLSMDDLDRYELELHTKRSELVYSIELKSGTEEYEYDLRAADGTILKRDTDF	-0.168
HMEIGNVIAKLRVSNGLNQREFAKKLEVSNGAVAMWETNKRQPDLEMIKKISNLFDVPTDYILGAGTFQ	-0.458
HMGEEIRTWTDAQGRKIEARMSMLDGDQVLLELKDGRKIPYPLAKLSADDAHYARHFASASASD	0.0254
HMDAVKKKVQSTNTLLDVLKQMLPQTSSNTLRKMLTNQRITVDGETIHRAKHTVEKDQTVEIHPKP	0.256
HMKQNNYATKKELNFFVSRLISLLSYRDFFNPIEKKESMINNIEAIFTRSSLTSQELRTLHGIISNLVE	-3.07
HMSSGLLTVQEQRILEHLANGERNGDIAGRLHISEGTVKWHLHNMYRKLDAATRTQAVARARALRL	-0.109
HMSVFGMEIGKTTEAEAGRMYRLNKEQLNPYSGGYQYSVNPKAIDFSGLEQVTLIFDEKKVLVYVQAV	-0.0837
HMSVDDVALRLEFGPSDAEALAFVHRHGAILSETTDRDTGVVSVHVRLSEADAGRFNQRYGV	-0.183
HMNIDNTWQPSEDVVEILTRSGINEDFINELIPEFIVYWTERPGTLVSYNSKFIEHVRLKWAQHSAEI	0.0597
HMSTKRQKELLEYVDRFITEHGYGPSYREIMNAIGYKSVSTVAIHIDGLIAKGYLRKRDNSARSLEVV	-0.716
HMKIVFGHVKWFDIDKGFGFLVLEDEGGDVLLHANVLKNFGRTSVSEDTKIEFEFLETDKGRQVSTIYNIL	-3.85

Sequence	soluble fraction (log2)
HMENQFNDWSLTPSEKEVALFMLKGLSTQEIAAARNTKEKTVRQQASAVYAKSQLDGRYALAAWFFEDI	-0.567
HMAQLTPREREVLVLIAEGKSNKEIADQLNIGVRTIETHRERIMRRLNIHSVAGLTKYAIANGLVTL	0.116
HMRPKVADIDYFDGKTFTIEDGSKHSITTSEAKKIYFYLVKNGYVDDESHVTDAYRSAATSGTLA	-0.0505
HMRNTPQRRHAILALLSEQGEVSVDALAKRFSTSEVTIRKDLAAMESHGLLLRRYGGAVPMPQELI	-0.928
HMADLKVGFVHRAGSVLERELDDVLEALEMYRSALAIDPSHKPSLDALTRISQLADYREQAAEILEPLPR	-0.576
HMGSLAVVPSLTGKTLQEAQSKAADYGLALEIEGYVASTAVDYGRIVSQSPDAGFSVKSGSSVKVSVSAG	0.117
HMELPPLEPIDRILVVQQPINIREQPGVLAKKIGRVSSGETLTILAKVSGQDWYFVETDNGGRGYVFKRV	-0.555
HMGDWITGTVTRIADNGWGTFQPENAHNTVSIPPKMVADNQLKEADSIKIIAEPSPDGTKTFIKAISRE	-0.00712
HMEKELVSDFASRISTARSSKGWNHAELGKRMAETVNVIKSAESGKPPTDSVVKKLERVLGITLMEV	-0.17
HMQHYQFEVDEASSKKRLDVFLSENLPEISRSRLKKLIDEKRVTVNEMSRPAGYKVRVKEKIEFHIPPL	-0.402
HMAKSPYDVLGLKEDAPFDEVKKRYRELVKKYHPDILMGRGESEEMIEKSTRKLQEINEAYETIKQRA	0.118
HMSNYIVELSSSEKIDDIDNNNNLINSFFSKSDSQWEYKLVFKNKNEMDVFVKKISTNNKIISYKTSS	0.149
HMIKSEERIQNIKEYILEFQFTYHRTPTMAQIAEAVGTVKSNVYKYLSEMEERGILTRNKREIEINDTIQ	-0.819
HMSVPEAAERAIDVAQMRRALGELSPEQQRVLELAYFGGLTRQEIARATGTPLGTVHTRARLGLQNLRARL	-0.299
HMGVSVNVQPAILDWAMQKAQMGNAGSSVIEMIAKWISGEKAPTFNQIEDVSKKISIPFGFFFLKEPPIE	-0.951
HMTSKTLSAVEGEGLRLDKFLSNQLPELSRTKIQKMINDGLVFVNNTEAKASLILDGSEFIAYTVPD	-0.0541
HMVITEQTVTVKYLYEDDTEAAPEHSETHKTGETFEIESPKIDGFTPDYELITGTIANDDLVYIVRYKTTP	-0.282
HMGRWQPSTSAKQHGESALLLERLLHLERLTVSEAFHVLTINHRLNLSLPEYRSLLAVVQLPK	-1.57
HMPKYLNIYHELAQRIQEGALPAETKLPSETELMQEFEASRGTVRKAIDALQEKGFVRKHQGKGVFVLSQ	-0.371
HMEHLTATERHLVAYLEAHLGQVPSLSITKLSQEANVSTASIVRTMKKLGYDGFTAFKHAIKQQLR	-1.77
HMDSIDIDAETKSLGPNAPQIIKGIKEWGQGLVAKGVWSDQDFEEFKVFAATANGINALNKVRKFY	-0.154
HMEQYYVFFAGGMTIGTKEWYESILPENIATSYDDILEGKMMPASLEQIEFYNSHKDYDLYHLFYML	-4.11
HMSAQDLIVRRDSARIEARVTEISPTEIRYKRASNPDGPTYVLPLGDVRSIRYANGEEEVFAPA	-0.138
HMFISVDGLIHMGRTHLVILGGVEFARGDMIPETGEVVKSIGADSVVLELPDTGMRRTLNFV	-2.92
HMIEQEQAFLEQVLKKYSQEELVLTVGSRTLVKYSAGQLERLLEHYPHVRLASSPVNGEAGFLLSRG	-0.0933
